{"source": "paper PMC4191604", "about": "(Journal of Medicinal Chemistry, 2014)", "binders": {"B1": {"name": "PIM1 (recombinant) (enzyme)", "chain": "not shown"}}, "experiment_in_all_cases": "SPR", "key": {"[1]": {"biological_target": "T1, GBP1 mutant R227A/K228A (human, UniProt P32455 1-592, R227A | K228A)", "T1 sequence (looked up)": "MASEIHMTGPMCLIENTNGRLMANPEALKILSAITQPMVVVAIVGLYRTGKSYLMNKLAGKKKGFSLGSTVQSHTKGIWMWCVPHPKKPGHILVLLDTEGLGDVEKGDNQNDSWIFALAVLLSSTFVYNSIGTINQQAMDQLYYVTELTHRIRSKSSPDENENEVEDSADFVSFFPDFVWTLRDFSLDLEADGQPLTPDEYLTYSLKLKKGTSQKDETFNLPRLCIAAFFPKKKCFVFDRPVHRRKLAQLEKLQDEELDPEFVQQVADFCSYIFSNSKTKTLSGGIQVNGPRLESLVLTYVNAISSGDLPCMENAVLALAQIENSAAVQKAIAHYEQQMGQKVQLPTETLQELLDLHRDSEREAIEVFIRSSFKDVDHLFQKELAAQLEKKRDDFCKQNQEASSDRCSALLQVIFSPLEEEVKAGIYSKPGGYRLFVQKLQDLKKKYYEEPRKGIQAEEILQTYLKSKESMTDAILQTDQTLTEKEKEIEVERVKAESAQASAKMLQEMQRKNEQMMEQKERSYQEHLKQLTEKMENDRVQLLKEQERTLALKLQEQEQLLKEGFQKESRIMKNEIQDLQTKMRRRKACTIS"}, "[2]": {"biological_target": "T2, GBP1 GTPase (human GBP1, recombinant wild type) (human, UniProt P32455 1-592)", "T2 sequence (looked up)": "T1 sequence (looked up) with A227R, A228K"}, "[3]": {"biological_target": "T3, GBP1 mutant K51A (human, UniProt P32455 1-592, K51A)", "T3 sequence (looked up)": "T1 sequence (looked up) with K51A, A227R, A228K"}, "[4]": {"biological_target": "T4, GBP1 mutant D184A (human, UniProt P32455 1-592, D184A)", "T4 sequence (looked up)": "T1 sequence (looked up) with D184A, A227R, A228K"}}, "note": "Positions count from the first letter of the chain named.", "data": [{"binder": "B1", "values": [{"measurement": "Kd", "setting": "[1]", "result": "61 ± 4", "unit": "nM"}, {"measurement": "Kd", "setting": "[2]", "result": "30 ± 10", "unit": "nM"}, {"measurement": "Kd", "setting": "[3]", "result": "26 ± 11", "unit": "nM"}, {"measurement": "Kd", "setting": "[4]", "result": "77 ± 3", "unit": "nM"}]}]}
